Two molecules from patent US20240018229A1 (published 2024) can be followed below.

Assay [1] concerns the target T1, recombinant human CXCL1 protein (human, UniProt P09341 35-107).
T1 construct: also called human chemokine CXCL1; soluble recombinant human CXCL1
T1 sequence: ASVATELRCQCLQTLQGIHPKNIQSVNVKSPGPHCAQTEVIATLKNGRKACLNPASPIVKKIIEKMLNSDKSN
The experiment in a line: apparent affinity-binding constant, in PBS; method not stated; in PBS.

Assay [2] deals with T1, recombinant human CXCL1 protein. The assay is described as follows: apparent KD from the absorbance (450 nm) curve in human serum diluted 1:4.
Assay [3] shares this target. The experiment in a line: apparent affinity-binding constant, in serum 1:40 dilution; method not stated; serum, 1:40 dilution.
Assay [4] has as its target T2, mouse CXCL1 (mouse, UniProt P12850 25-96, limits assumed).
T2 sequence (looked up): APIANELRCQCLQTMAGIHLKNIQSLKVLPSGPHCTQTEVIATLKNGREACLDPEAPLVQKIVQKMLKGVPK
The experiment in a line: immunoblot strip (the text does not name the assay); 10, 20 and 30 ng of CXCL1 of each species loaded.

In assay [5] the target is T3, rat CXCL1 (rat, UniProt P14095 25-96, limits assumed).
T3 sequence (looked up): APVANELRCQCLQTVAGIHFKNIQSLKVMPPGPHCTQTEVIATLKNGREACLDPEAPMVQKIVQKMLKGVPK
The assay is described as above.

In assay [6] the target is T1, recombinant human CXCL1 protein. The experiment in a line: ELISA, human CXCL1 coated 30 ng per well, IgG 1/10 dilute original, donkey anti-human HRP, TMB. As to the method:
The human CXCL1 protein was coated onto 96-well, 30 ng for well at 4° C. overnight. The plate was blocked by 3% skim milk in PBS 2 h at room temperature. The plate was washed 3 times with PBST and applied anti-human CXCL1 humanized version IgG antibodies were diluted 1/100 and 1/10 in PBS and subjected into antigen coated plate for 1 h at room temperature. The donkey anti-human monoclonal antibody with HRP conjugate antibody was diluted 1/3000 and applied for 45 min at room temperature, afterwards washed 3 times with PBST and developed with TMB solution.

B1: anti-CXCL1 neutralizing monoclonal mouse antibody (HL2401) (antibody, V domains shown)
VH: EVKLVESGAELVKPGASVKLSCKASGYTFTSYYIYWVKQRPGQGLEWIGEIDPSHGGPTFNEKFKNKATLTVDKSSSTAYMQLSSLTSDDSAVYYCTRESGTGAMDYWGQGTTLTVSS
VL: DIVLTQSPASLAVSLGQRATISCKASQSVDYDGDSYVNWYQQKPGQPPKLLIYAASNLESRIPARFSGSGSGTDFTLNILPVEEDDGATYYCQQSSEDPWTFGGGTKLEIKR
notes: also called CXCL1 mAb (HL2401); mouse anti-human CXCL1 antibody HL2401
With B1, the Kd was found to be 0.176 µg/mL in assay [1], 0.387 µg/mL in assay [2] and 0.252 µg/mL in assay [3]. The binding result in assay [4] and in assay [5] was “no binding (tested: 30 ng)” in each case.

B2: Hum2401 IgG antibody (antibody, V domains shown)
VH: QVQLVESGGGLVQPGGSLRLSCKASGYTFTSYYIYWVRQAPGKGLEWIGEIDPSHGGPTFNEKFKNRFTISRDNSKNTLYLQMNSLRAEDTAVYYCTRESGTGAMDYWGQGTLVTVSS
VL: DIQMTQSPSSLSASVGDRATISCKASQSVDYDGDSYVNWYQQKPGKAPKLLIYAASNLESGIPSRFSGSGSGTDFTLTISSLQPEDFATYYCQQSSEDPWTFGQGTKVEIKR
notes: also called Hum2401 Ab; Pcmvdhfr-Hum2401(H+L)
For the molecule B2, the ELISA signals in assay [6] was found to be 2.1.
